Measurements as given in publication PMC8752837, “Structural basis of BAK activation in mitochondrial apoptosis initiation” (Nature Communications, 2022).
Numbering of substitutions follows the chain as printed. Numbers in names are those of the source.

What was measured:
[1] = system: BCL2allKO HCT116 cells reconstituted with Dox-inducible mC-BAK; assay: Dox-induced cell death by IncuCyte imaging of SYTOX Green uptake (autoactivation); assay type: cell-based, human; details: for Dox-induced cell death: IncuCyte SYTOX Green up to 48 h; for AUC (48 hr) of SYTOX Green counts/confluence: mC-BAK BCL2allKO HCT116 + Dox + qVD, average, N = 3; for SYTOX Green +ve counts/confluence AUC of kinetic traces: Fig 3d
Text: For mammalian cell culture experiments, we cloned the full length human BAK cDNA into pCR 2.1 TOPO vector, mutated BAK as needed, and PCR amplified the BAK gene for cloning into the BamHI and NotI sites of pRETROX mCherry vector for retroviral transduction. Amplification and mutagenesis primers are included in Supplementary Table 4. To test direct BAK activation and BAK autoactivation in cells, we produced cells stably expressing mCherry-human BAK (mC-BAK) ± human BID (BID) on a genetic background devoid of the entire BCL-2 family repertoire (all 17 BCL-2 genes), BCL2allKO HCT116, as described by the Xu Luo laboratory. We expressed WT and mutant mC-BAK using the doxycycline (Dox)-based inducible Tet-On 3G retroviral system from the pRetroX-TRE3G-Puro^R in BCL2allKO HCT116 cells expressing the Tet3G from pRetroX-Tet3G-Blast^R. We selected cells with puromycin (2.5 µg/mL) and blasticidin (2 µg/mL) starting at 2 days after retroviral transduction. To enrich for populations of cells that express mC-BAK, we treated cells with low Dox dose (25 ng/mL) and fluorescence-activated cell sorted (FACS) the mCherry positive cells. We performed the enrichment twice before cell death analysis. One caveat of our cellular system is tagging BAK with N-terminal mCherry, which may affect folding efficiency, degradation, and BAK interactome.
(§1) We seeded cells in 24-well (100,000 cells/well), 96-well (15,000 cells/well), or 384-well (10,000 cells/well) plates coated with 10 µg/mL fibronectin. After ≥24 h of attachment and recovery, we induced cell death with Dox (up to 1000 ng/mL) and monitored SYTOX Green (25 nM) uptake by Incucyte imaging. This dye marks cells with compromised plasma membrane integrity. mC-BAK expressed before 24 h, which coincided with detectable cell death. We monitored Incucyte imaging for up to 48 h, followed by endpoint FACS analysis to measure the extent of cell death based on SYTOX Green positive cells on FACSCalibur systems (BD Biosciences). As expected, cells with low mCherry fluorescence were refractory to cell death.

[2] = system: BCL2allKO HCT116 cells reconstituted with mC-BAK; assay: Endpoint FACS analysis of SYTOX Green positive cells; assay type: cell-based, human; details: average, N = 3
Protocol: as §1

BAK [3] = assay: Dye-based thermal shift assay (SYPRO Orange); assay type: physicochemical, human; details: rebuttal
Protocol: To control for effect of mutations on protein stability, which may confound interpretation of impairment in BAK autoactivation, we measured the Tm of BAK WT and mutants (Supplementary Fig. 3f).
(§2) We carried out TSA in 20 µL reactions in 384-well PCR plate (Cat# AB1384, Thermo Fisher Scientific) in 20 mM HEPES pH 7.0, 150 mM NaCl, 2 mM DTT), SYPRO ^TM Orange (5×) and 0.25 mg/mL purified BAK. To remove air bubbles we sealed assay plates with MicroAmp Optical Adhesive, incubated them for 2–5 min, and centrifuged them (1000 × rpm). We subjected the assay plates to 25–99 °C thermal gradient with 1°/minute increment and recorded fluorescence using Applied Biosystems Quant Studio 5. We performed three experiments in quadruplicate for each sample. We performed data processing and visualization in RISE, and final data analysis in Excel and GraphPad Prism. We also carried out dye-free TSA using capillary-based Prometheus NT.48 Nano Differential Scanning Fluorimetry (Nanotemper) in the same buffer conditions with 15 μM BAK. Melting temperature (Tm) values were obtained from the first derivative of melting scans.

BAK [4] = assay: Dye-free nano Differential Scanning Fluorimetry thermal shift assay; assay type: physicochemical, human; details: without DTT; mean of N = 3; Suppl. Fig. 7h
Protocol: Through rational design and structural analysis, we expand the list of activated BAK complexes, supporting requisite BH3 ligand-induced destabilization of helix α1 (see below).
as §2

[5] = Liposome permeabilization by WT and mutant BAK proteins (autoactivation, or direct activation by BID BH3); assay type: biochemical; details: no BH3 peptide; liposomes with […] DGS-NTA(Ni); Fig. 1a
Protocol: Human BAK-∆TM-His6 (BAK)[26] spontaneously permeabilizes liposomes above a certain dose (>100 nM, Fig. 1a). In these dye-release assays[43]–[46], BAK is recruited via His-tag to liposomes containing 2.5 µM of the lipid 1,2-dioleoyl-sn-glycero-3-[(N-(5-amino-1-carboxypentyl)iminodiacetic acid)succinyl] (nickel salt), DGS-NTA(Ni).
To probe autoactivation with full-length BAK, we mutated hydrophobic residues at positions (0)−(6) of the BH3 to alanine or arginine, and D83, which forms the conserved salt bridge (s) with R127, to alanine (Fig. 2a). The BH3 residues participate in autoactivation from the ligand side [hydrophobic positions (0)–(5) and D83(s)] and also from the receptor groove side [hydrophobic positions (3)–(5)] (Fig. 2a). Thus, substitutions at positions (3)–(5) should affect receptor and ligand activities and are predicted to impact BAK activation more severely than mutations of positions (0)–(2), which affect only ligand activity. […] In contrast, almost all (2)–(5) and (s) missense mutants were considerably impaired in autoactivation (Fig. 2b and Supplementary Fig. 3a). […] Despite impairment in autoactivation, all missense mutants were directly activated by BID BH3 peptide, although they induced lower level of permeabilization compared to WT BAK (Fig. 2b and Supplementary Fig. 3a).
We performed liposome permeabilization assays as previously described[43]–[46]. […] (nickel salt) [DGS NTA(Ni), 2.5 μM final concentration in each assay] (Avanti Polar Lipids). We prepared 12.5 mM fluorophore; 8-aminonaphthalene-1, 3, 6-trisulfonic acid, disodium salt (ANTS) and 45 mM quencher; p-xylene-bis-pyridiniumbromide (DPX) in LUV buffer (10 mM HEPES pH 6.8, 200 mM KCl and 5 mM MgCl2). We mixed the lipid film in ANTS/DPX solution by vortexing and sonication (~15 min) followed by extrusion through polycarbonate membrane of 2 μm pore size (Avanti Polar lipids) to generate homogenous large unilamellar vesicles (LUVs). We separated LUVs from free ANTS/DPX by S500 size exclusion chromatography and stored them at 4 °C in the dark. We prepared peptide and protein dilutions in 96-well black flat bottom plates (Costar) kept on ice. ANTS release from permeabilized liposomes causes an increase in fluorescence, which we monitored at 37 °C for 90 min using a CLARIOSTAR microplate reader (BMG Labtech) set at excitation and emission wavelengths of 360 and 530 nm, respectively. We normalized the data relative to maximum and minimum fluorescence induced by 3% CHAPS and buffer controls, respectively. We quantified liposome permabilization by integrating area under curve (AUC) of normalized traces based on the Simpson’s equation, and analyzed that data in Excel and GraphPad Prism. AUC measurements reflect the kinetic and extent of liposome permeabilization and provide quantitative means for comparison between different experimental conditions (e.g., BAK mutants with gross or partial variation in activity). Variability in permeabilization of different liposomes is common and our analyses compare among conditions investigated with the same liposomes. Although the absolute permeabilization values may differ, the trends for the same conditions are always very similar between different liposomes.

[6] = system: BCL2allKO HCT116 cells expressing mC-BAK and BID; assay: Dox + TRAIL + CHX induced cell death by IncuCyte imaging of SYTOX Green uptake (direct activation); assay type: cell-based, human; details: TRAIL 200 ng/mL + CHX 0.5 µg/mL added at 6 h
Protocol: We achieved stable, constitutive expression of human BID in mC-BAK expressing BCL2allKO HCT116 by retroviral transduction based on pMX-human-BID-IRES-GFP. Amplification primers are included in Supplementary Table 4. We performed two rounds of FACS sorting gating on GFP-positive cells to enrich for populations of cells that express BID.
For coexpression of mC-BAK + BID, we treated cells with different doses of Dox for 24 h to induce expression of mC-BAK. At 6 h, we treated cells with TRAIL (200 ng/mL) + cycloheximide (CHX, 0.5 µg/mL) to promote BID activation under conditions of protein synthesis inhibition by CHX, and continued to record Incucyte imaging of SYTOX Green uptake up to 48 h. We blocked caspase activity with qVD (40 µM).

B1: I81R (3): BAK missense mutant (protein, UniProt Q16611 2-211, looked up, variant I81R)
Bcl-2 homologous …: ASGQGPGPPRQECGEPALPSASEEQVAQDTEEVFRSYVFYRHQQEQEAEGVAAPADPEMVTLPLQPSSTMGQVGRQLAIRGDDINRRYDSEFQTMLQHLQPTAENAYEYFTKIATSLFESGINWGRVVALLGFGYRLALHVYQHGLTGFLGQVTRFVVDFMLHHCIARWIAQRGGWVAALNLGNGPILNVLVVLGVVLLGQFVVRRFFKS
Dox-induced cell death [1]: inactive irrespective of Dox dose | AUC (48 hr) of SYTOX Green counts/confluence ([1]; Dox 100 ng/mL): 331.061 | AUC (48 hr) of SYTOX Green counts/confluence ([1]; Dox 1000 ng/mL): 348.847 | flow cytometry SYTOX Green counts/confluence (48 hr) ([2]; Dox 100 ng/mL): 2.517 | flow cytometry SYTOX Green counts/confluence (48 hr) ([2]; Dox 1000 ng/mL): 4.75 | difference in Tm compared to WT (BAK [3]): < 2 °C

B2: WT BAK: C-terminus truncated recombinant human BAK with C-terminal 6× histidine tag (protein, UniProt Q16611 2-211, looked up)
Bcl-2 homologous …: B1 Bcl-2 homologous … with R80I
Melting temperature for 3 exps, Mean (BAK [4]): 77 °C | BAK dose above which liposomes are spontaneously permeabilized [5]: > 100 nM

B3: D83A (s): BAK missense mutant, autoactivation-impaired; in cells as mCherry fusion (protein)
chain: MASGQGPGPPRQECGEPALPSASEEQVAQDTEEVFRSYVFYRHQQEQEAEGVAAPADPEMVTLPLQPSSTMGQVGRQLAIIGADINRRYDSEFQTMLQHLQPTAENAYEYFTKIATSLFESGINWGRVVALLGFGYRLALHVYQHGLTGFLGQVTRFVVDFMLHHCIARWIAQRGGWVAALNLGNG
modifications: left off: His6, C-terminal, kept
notes: in cells as mCherry fusion
cell death with Dox + TRAIL + CHX compared to Dox alone [6]: boosted the levels of cell death | SYTOX Green +ve counts/confluence AUC of kinetic traces ([1]; Dox 6.25 ng/mL): 251.48 | SYTOX Green +ve counts/confluence AUC of kinetic traces ([1]; Dox 6.25 ng/mL + qVD): 178.809 | SYTOX Green +ve counts/confluence AUC of kinetic traces ([1]; Dox 12.5 ng/mL): 298.87 | SYTOX Green +ve counts/confluence AUC of kinetic traces ([1]; Dox 12.5 ng/mL + qVD): 216.467 | SYTOX Green +ve counts/confluence AUC of kinetic traces ([1]; Dox 25 ng/mL): 546.446 | SYTOX Green +ve counts/confluence AUC of kinetic traces ([1]; Dox 25 ng/mL + qVD): 167.305 | SYTOX Green +ve counts/confluence AUC of kinetic traces ([1]; Dox 50 ng/mL): 973.937 | SYTOX Green +ve counts/confluence AUC of kinetic traces ([1]; Dox 50 ng/mL + qVD): 180.875 | SYTOX Green +ve counts/confluence AUC of kinetic traces ([1]; Dox 100 ng/mL): 1429.67 | SYTOX Green +ve counts/confluence AUC of kinetic traces ([1]; Dox 100 ng/mL + qVD): 197.929 | SYTOX Green +ve counts/confluence AUC of kinetic traces ([1]; Dox 500 ng/mL): 1807.16 | SYTOX Green +ve counts/confluence AUC of kinetic traces ([1]; Dox 500 ng/mL + qVD): 226.028 | SYTOX Green +ve counts/confluence AUC of kinetic traces ([1]; Dox 1000 ng/mL): 2018.82 | SYTOX Green +ve counts/confluence AUC of kinetic traces ([1]; Dox 1000 ng/mL + qVD): 223.673 | Dox-induced cell death [1]: consistently less potent at inducing apoptosis than V74A(1) | AUC (48 hr) of SYTOX Green counts/confluence ([1]; Dox 100 ng/mL): 54126.6 | AUC (48 hr) of SYTOX Green counts/confluence ([1]; Dox 1000 ng/mL): 77700.1 | fold higher expression level for similar cell death compared to V74A ([1]; mC-BAK/actin immunoblot, Fig. 3d): ~ 10 fold | flow cytometry SYTOX Green counts/confluence (48 hr) ([2]; Dox 100 ng/mL): 35.2333 | flow cytometry SYTOX Green counts/confluence (48 hr) ([2]; Dox 1000 ng/mL): 43.7667
